B1: Protein XRP2 (Homo sapiens), O75695 (parent)
chain: MGCFFSKRRKADKESRPENEEERPKQYSWDQREKVDPKDYMFSGLKDETVGRLPGTVAGQQFLIQDCENCNIYIFDHSATVTIDDCTNCIIFLGPVKGSVFFRNCRDCKCTLACQQFRVRDCRKLEVFLCCATQPIIESSSNIKFGCFQWYYPELAFQFKDAGLSIFNNTWSNIHDFTPVSGELNWSLLPEDAVVQDYVPIPTTEELKAVRVSTEANRSIVPISRGQRQKSSDESCLVVLFAGDYTIANARKLIDEMVGKGFFLVQTKEVSMKAEDAQRVFREKAPDFLPLLNKGPVIALEFNGDGAVEVCQLIVNEIFNGTKMFVSESKETASGDVDSFYNFADIQMGI

Variants of: B1
Details: with arl3_mouse Arl3, Q9WUL7
Sequence of arl3_mouse Arl3, Q9WUL7 (Q9WUL7 whole entry): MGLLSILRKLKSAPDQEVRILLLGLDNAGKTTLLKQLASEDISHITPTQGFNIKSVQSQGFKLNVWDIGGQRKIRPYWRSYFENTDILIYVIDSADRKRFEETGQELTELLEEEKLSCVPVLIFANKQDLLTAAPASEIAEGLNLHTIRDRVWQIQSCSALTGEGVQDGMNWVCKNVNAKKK

Variant | effect of a mutation on the interaction
R118A | decreasing interaction
Q116A | decreasing interaction

Other lines, results leading:

effect of a mutation on the interaction | Variant
decreasing interaction | E138G
decreasing interaction | F177A

Variants of: B1
Details: with arl3_mouse Arl3, Q9WUL7
Remark: another data set of the same source

effect of a mutation on the interaction | Variant
decreasing interaction | R118H
decreasing interaction | S28A;W29A
decreasing interaction | Q115A
decreasing interaction | R120H;D121S
